The experiment addresses CD3 (human). Nature of the experiment: ELISA or FCM (as in Example 2).

Residue numbers refer to the chain shown, from its start.

B1: Ly1966 (multi-specific antibody)
chain 1: QVQLQQSGAELVRPGSSVKISCKASGYAFSSYWMNWVKQRPGQGLEWIGQIWPGDGDTNYNGKFKGKATLTADESSSTAYMQLSSLASEDSAVYFCARRETTTVGRYYYAMDYWGQGTTVTVSSASTKGPSVFPLAPSSKSTSGGTAALGCLVKDYFPEPVTVSWNSGALTSGVHTFPAVLQSSGLYSLSSVVTVPSSSLGTQTYICNVNHKPSNTKVDKKVEPKSCGGGGSGGGGSGGGGSGGGGSEVQLVESGGGLVQPGGSLRLSCAASGFTFSTYAMNWVRQAPGKGLEWVGRIRSKYNNYATYYADSVKGRFTISRDDSKNSLYLQMNSLKTEDTAVYYCVRHGNFGNSYVSWFAYWGQGTLVTVSSGGGGSDKTHTCPPCPAPEAAGPSVFLFPPKPKDTLMISRTPEVTCVVVDVSHEDPEVKFNWYVDGVEVHNAKTKPREEQYNSTYRVVSVLTVLHQDWLNGKEYKCKVSNKALPAPIEKTISKAKGQPREPQVYTLPPSREEMTKNQVSLWCLVKGFYPSDIAVEWESNGQPENNYKTTPPVLDSDGSFFLYSKLTVDKSRWQQGNVFSCSVMHEALHNHYTQKSLSLSPGGGGGSGGGGSGGGGSGGGGSQVQLVQSGAEVKKPGASVKVSCKASGYTFAGFEMHWVRQAPGQGLEWMGAIDPKTGGTDYNQKFKDRVTMTRDTSISTAYMELSRLRSDDTAVYYCARDLGYFDVWGQGTLVTVSS
chain 2: QVQLQQSGAELVRPGSSVKISCKASGYAFSSYWMNWVKQRPGQGLEWIGQIWPGDGDTNYNGKFKGKATLTADESSSTAYMQLSSLASEDSAVYFCARRETTTVGRYYYAMDYWGQGTTVTVSSASTKGPSVFPLAPSSKSTSGGTAALGCLVKDYFPEPVTVSWNSGALTSGVHTFPAVLQSSGLYSLSSVVTVPSSSLGTQTYICNVNHKPSNTKVDKKVEPKSCGGGGSGGGGSGGGGSGGGGSQAVVTQEPSLTVSPGGTVTLTCRSSTGAVTTSNYANWVQQKPGQAPRGLIGGTNKRAPWTPARFSGSLLGGKAALTITGAQAEDEADYYCALWYSNLWVFGGGTKLTVLGGGGSDKTHTCPPCPAPEAAGPSVFLFPPKPKDTLMISRTPEVTCVVVDVSHEDPEVKFNWYVDGVEVHNAKTKPREEQYNSTYRVVSVLTVLHQDWLNGKEYKCKVSNKALPAPIEKTISKAKGQPREPQVYTLPPSREEMTKNQVSLSCAVKGFYPSDIAVEWESNGQPENNYKTTPPVLDSDGSFFLVSKLTVDKSRWQQGNVFSCSVMHEALHNRFTQKSLSLSPGGGGGSGGGGSGGGGSGGGGSDIQMTQSPSSLSASVGDRVTITCRASQDIRSNLNWYQQKPGGAVKLLIYYTSRLHSGVPSRFSGSGSGTDYTLTISSLQPEDFATYFCQQSEKLPRTFGGGTKVEIR
chain 3: not shown
notes: CD19/CD3/CD137
Regarding B1, the EC50 is 0.348 µg/mL.

B2: Ly1967 (multi-specific antibody)
chain 1: B1 chain 1
chain 2: B1 chain 2 with R575H, F576Y
chain 3: not shown
notes: CD19/CD3/CD137 multi-specific
The molecule B2 displayed an EC50 of 1.56 µg/mL.

As usually defined, the EC50 is the concentration giving half of the maximal effect.

The values above are taken from EP4803149A2 (Lyvgen Biopharma Holdings Limited, dated 2026).
